Laboratory results as given in publication PMC5487423 (2017).
Numbering of substitutions follows the chain as printed.

How the values were obtained:
Assay in all cases: BLI
CCL15_HUMAN = biological target: CCL15_HUMAN
CCL27_HUMAN = biological target: CCL27_HUMAN
CCL23_HUMAN = biological target: CCL23_HUMAN
CCL5 = biological target: T1, CCL5 (human, UniProt P13501 24-91)
T1 chain: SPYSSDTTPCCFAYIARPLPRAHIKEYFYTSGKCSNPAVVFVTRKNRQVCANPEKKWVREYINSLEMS

CCL2_MOUSE = CCL2_MOUSE (Mus musculus)
CCL18_HUMAN = biological target: T2, CCL18_HUMAN (Homo sapiens)
T2 chain: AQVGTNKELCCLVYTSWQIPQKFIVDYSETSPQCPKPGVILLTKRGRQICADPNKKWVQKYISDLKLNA

CCL7 = CCL7 (human, UniProt P80098 24-99)
CCL7, sequence (P80098 24-99): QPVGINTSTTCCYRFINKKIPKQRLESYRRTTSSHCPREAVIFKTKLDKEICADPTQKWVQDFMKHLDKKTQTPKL

CCL4L1_HUMAN = biological target: T3, CCL4L1_HUMAN (Homo sapiens)
T3 chain: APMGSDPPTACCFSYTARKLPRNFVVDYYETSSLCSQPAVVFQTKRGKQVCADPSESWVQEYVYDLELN

CCL2 = CCL2 (human, UniProt P13500 24-99)
CCL2, sequence (P13500 24-99): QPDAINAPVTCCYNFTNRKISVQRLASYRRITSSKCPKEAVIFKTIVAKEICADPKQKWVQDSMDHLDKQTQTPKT

CCL22_HUMAN = biological target: T4, CCL22_HUMAN (Homo sapiens)
T4 chain: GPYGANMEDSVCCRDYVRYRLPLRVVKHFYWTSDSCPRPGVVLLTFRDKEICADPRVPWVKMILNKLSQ

CCL11 = CCL11 (human, UniProt P51671 24-97)
CCL11, sequence (P51671 24-97): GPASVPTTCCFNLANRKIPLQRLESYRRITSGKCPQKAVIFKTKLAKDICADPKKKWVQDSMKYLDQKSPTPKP

CCL5_MOUSE = CCL5_MOUSE (Mus musculus)
CCL5_MOUSE (Mus musculus), sequence (P30882 24-91): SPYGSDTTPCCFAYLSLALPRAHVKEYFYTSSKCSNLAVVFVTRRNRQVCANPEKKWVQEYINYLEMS

CCL4_MOUSE = biological target: T5, CCL4_MOUSE (Mus musculus)
T5 chain: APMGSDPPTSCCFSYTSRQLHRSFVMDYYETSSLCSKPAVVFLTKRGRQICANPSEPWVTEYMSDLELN

CCL11_MOUSE = biological target: T6, CCL11_MOUSE (Mus musculus)
T6 chain: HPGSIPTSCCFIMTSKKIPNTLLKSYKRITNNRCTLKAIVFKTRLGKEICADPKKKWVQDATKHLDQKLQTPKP

CCL19_HUMAN = biological target: T7, CCL19_HUMAN (Homo sapiens)
T7 chain: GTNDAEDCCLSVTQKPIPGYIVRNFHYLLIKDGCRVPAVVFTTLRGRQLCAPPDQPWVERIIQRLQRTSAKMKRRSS

CCL3 = biological target: T8, CCL3 (human, UniProt P10147 24-92)
T8 chain: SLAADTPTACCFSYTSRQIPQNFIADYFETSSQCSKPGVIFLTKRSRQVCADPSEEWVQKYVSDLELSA

CCL8 = biological target: T9, CCL8 (human, UniProt P80075 24-99)
T9 chain: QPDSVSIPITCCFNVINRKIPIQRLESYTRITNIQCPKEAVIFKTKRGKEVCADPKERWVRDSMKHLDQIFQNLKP

CCL22_MOUSE = biological target: T10, CCL22_MOUSE (Mus musculus)
T10 chain: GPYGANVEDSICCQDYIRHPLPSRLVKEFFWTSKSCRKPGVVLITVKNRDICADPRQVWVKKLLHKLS

CCL16_HUMAN = biological target: T11, CCL16_HUMAN (Homo sapiens)
T11 chain: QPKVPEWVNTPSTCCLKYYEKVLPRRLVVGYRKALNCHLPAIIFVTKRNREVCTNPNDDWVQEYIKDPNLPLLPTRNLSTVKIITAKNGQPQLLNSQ

CCL13_HUMAN = CCL13_HUMAN (Homo sapiens)
CCL13_HUMAN (Homo sapiens), sequence (chain, as listed by the source): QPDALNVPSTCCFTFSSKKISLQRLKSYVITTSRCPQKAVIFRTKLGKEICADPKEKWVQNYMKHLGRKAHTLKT

CCL4_HUMAN = biological target: T12, CCL4_HUMAN (Homo sapiens)
T12 chain: T3 chain with G47S

CCL3_MOUSE = biological target: T13, CCL3_MOUSE (Mus musculus)
T13 chain: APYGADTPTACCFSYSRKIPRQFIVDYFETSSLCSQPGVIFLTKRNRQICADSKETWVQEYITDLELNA

CCL24_HUMAN = biological target: T14, CCL24_HUMAN (Homo sapiens)
T14 chain: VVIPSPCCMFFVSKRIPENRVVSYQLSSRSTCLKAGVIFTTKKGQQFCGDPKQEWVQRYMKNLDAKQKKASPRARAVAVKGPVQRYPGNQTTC

CCL2_MOUSE (Mus musculus), sequence (chain, as listed by the source): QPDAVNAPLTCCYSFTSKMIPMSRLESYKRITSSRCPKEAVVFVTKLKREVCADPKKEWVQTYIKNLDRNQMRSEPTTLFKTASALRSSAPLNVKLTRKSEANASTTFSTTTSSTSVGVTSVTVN

B1: P991_AMBCA, purified, C-terminal StrepII-8xHis tag (natural protein)
chain: ETGENGEGTTQPDYDNSTDYYNYEDFKCTCPAPHLNNTNGTVMKPIGCYYTCNVTRCTAPDTYPCYNLTEHQAKNLTTSPTTLCAVGNCDHGICVPNGTKELCFKAPNLEE
Kd (CCL15_HUMAN): 160 nM | Kd (CCL27_HUMAN): 39 nM | Kd (CCL23_HUMAN): 5.6 nM | Kd (CCL5): 1.47 nM | Kd (CCL2_MOUSE): 24.3 nM | Kd (CCL18_HUMAN): 0.209 nM | Kd (CCL7): 0.514 nM | Kd (CCL4L1_HUMAN): 0.827 nM | Kd (CCL2): 12.2 nM | Kd (CCL22_HUMAN): 3.97 nM | Kd (CCL11): 3.43 nM | Kd (CCL5_MOUSE): 2.12 nM | Kd (CCL4_MOUSE): 0.401 nM | Kd (CCL11_MOUSE): 1.11 nM | Kd (CCL19_HUMAN): 14.4 nM | Kd (CCL3): 1.08 nM | Kd (CCL8): 8.79 nM | Kd (CCL22_MOUSE): 8.59 nM | Kd (CCL16_HUMAN): 1.28 nM | Kd (CCL13_HUMAN): 0.419 nM | Kd (CCL4_HUMAN): 5.82 nM | Kd (CCL3_MOUSE): 2.48 nM | Kd (CCL24_HUMAN): 6.54 nM
